Data published in US20090220532A1 (PROYECTO DE BIOMEDICINA CIMA S L, published 2009).

Target: human TLR4 (Toll-like receptor 4) on HEK293 cells expressing human TLR4-MD2-CD14 (human, UniProt O00206 24-839)
Assay: cell-based or functional assay

Chain of human TLR4 (Toll-like receptor 4) on HEK293 cells expressing human TLR4-MD2-CD14 (O00206 24-839): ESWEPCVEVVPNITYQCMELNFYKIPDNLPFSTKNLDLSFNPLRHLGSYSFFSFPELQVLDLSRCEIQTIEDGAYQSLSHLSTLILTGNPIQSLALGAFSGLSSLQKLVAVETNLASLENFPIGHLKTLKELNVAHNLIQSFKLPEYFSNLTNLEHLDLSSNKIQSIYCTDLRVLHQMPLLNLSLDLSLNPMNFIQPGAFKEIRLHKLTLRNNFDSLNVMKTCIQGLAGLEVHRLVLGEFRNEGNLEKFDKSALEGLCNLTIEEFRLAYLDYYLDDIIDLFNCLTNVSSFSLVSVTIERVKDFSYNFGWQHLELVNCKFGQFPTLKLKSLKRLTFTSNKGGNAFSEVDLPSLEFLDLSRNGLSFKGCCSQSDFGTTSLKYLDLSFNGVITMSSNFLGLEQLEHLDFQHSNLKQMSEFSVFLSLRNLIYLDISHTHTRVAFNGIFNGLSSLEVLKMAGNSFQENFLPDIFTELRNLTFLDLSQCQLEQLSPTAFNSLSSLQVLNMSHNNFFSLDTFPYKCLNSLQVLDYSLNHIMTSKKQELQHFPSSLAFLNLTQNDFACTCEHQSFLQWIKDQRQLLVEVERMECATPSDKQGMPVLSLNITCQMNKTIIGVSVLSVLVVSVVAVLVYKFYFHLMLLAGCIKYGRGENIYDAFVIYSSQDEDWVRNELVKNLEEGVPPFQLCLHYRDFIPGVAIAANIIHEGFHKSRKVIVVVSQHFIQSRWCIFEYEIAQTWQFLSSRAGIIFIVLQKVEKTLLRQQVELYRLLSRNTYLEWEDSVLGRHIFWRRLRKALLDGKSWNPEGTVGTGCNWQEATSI

B1: EDA-SIINFEKL-6xHis fusion protein (recombinant proteinaceous vector) (ligand)
chain: MNIDRPKGLAFTDVDVDSIKIAWESPQGQVSRYRVTYSSPEDGIRELFPAPDGEDDTAELQGLRPGSEYTVSVVALHDDMESQPLIGIQSTQLESIINFEKLTEWAAALEHHHHHH
  fold NF-κB induction factor (SEAP reporter under NF-κB-inducible ELAM-1 promoter; OD of HEK293/TLR4-MD2-CD14 supernatants divided by OD of HEK293/LacZ supernatants), 100 nM EDA-SIINFEKL: 7 fold
